Test results published in patent US20150064177A1 (ELAN PHARMACEUTICALS, published 2015).

Biological target: T1, human α4β1 integrin (human, UniProt P13612 34-1032; P05556 21-798)
T1 construct: whole, on cells; In the ELISA it is on transformed L cells; In the adhesion assays it is on human U937 monocytic cells and human Jurkat T cells; also called VLA-4; alpha-4-beta-1 integrin
Experiment: cell ELISA of crude Cos supernatants on L cells expressing α4β1 integrin
Method: Briefly, L cells transformed to express a4β1 integrin on their cell surface were plated out and grown to confluence in 96-well tissue culture plates. The samples to be tested (either crude supernatants or protein-A-purified) were serially diluted and added to each well. After incubation for 1 h on ice and very gentle washing, goat anti-mouse or anti-human (gamma-chain specific) peroxidase conjugates (Sigma) were added. After a further 1 h incubation on ice and very gentle washing, the substrate (o-phenylenediamine dihydrochloride, Sigma) was added. After incubation for 30 min at room temperature, the reaction was stopped by adding 1 M H₂SO₄, and the A₄₉₀ was measured.

B1: reshaped human 21.6 antibody (La+Ha) (antibody, human IgG1, V domains shown)
VH: QVQLVQSGAEVKKPGASVKVSCKASGFNIKDTYIHWVRQAPGQRLEWMGRIDPANGYTKYDPKFQGRVTITADTSASTAYMELSSLRSEDTAVYYCAREGYYGNYGVYAMDYWGQGTLVTVSS
VL: DIQMTQSPSSLSASVGDRVTITCKTSQDINKYMAWYQQTPGKAPRLLIHYTSALQPGIPSRFSGSGSGRDYTFTISSLQPEDIATYYCLQYDNLWTFGQGTKVEIK
notes: Human IgG1 kappa, expressed in Cos cells; not shown: human gamma-1 heavy chain constant region; human kappa light chain constant region
binding result: binds
